Results from patent publication US20100166779A1 (GANYMED PHARMACEUTICALS, published 2010).
Where a chain is given by its changes, count along the chain named. Values belong to the binder of their own block, whether it stands above or below them.

What was measured:
[1] = molecular target: T1, human CLD18A1 (human, UniProt P56856 1-261); assay: flow cytometry on HEK293-CLD18A1 cells
T1 construct: on transfected HEK293 or CHO cells; also called claudin 18 splice variant 1; NP-057453

[2] = molecular target: T2, murine CLD18A1 (mouse, UniProt P56857 1-264); assay: summary of properties
T2 construct: on transiently transfected HEK293 cells; also called mouse CLD18A1; NP-062789

[3] = molecular target: T1, human CLD18A1; assay: summary of properties
[4] = molecular target: T3, Peptide 7 RSCVRESSGFTECRG (human); assay: SPOT peptide scan, peroxidase-conjugated antibody, luminescence; no exchange
T3 construct: linear 15mer of the SPOT peptide scan, no exchange
T3 peptide: RSCVRESSGFTECRG

[5] = molecular target: T4, Peptide 1 MDQWSTQDLYNNPVT (human); assay: as above
T4 construct: linear 15mer of the SPOT peptide scan; has no cysteine, so the Cys-Ser exchange row is the same peptide
T4 peptide: MDQWSTQDLYNNPVT

[6] = molecular target: T5, Peptide 6 QGLWRSCVRESSGFT (human); assay: as above
T5 construct: linear 15mer of the SPOT peptide scan, no exchange
T5 peptide: QGLWRSCVRESSGFT

[7] = molecular target: T6, Peptide 7, Cys-Ser exchange (human); assay: SPOT peptide scan, peroxidase-conjugated antibody, luminescence; Cys-Ser exchange
T6 construct: also called peptide 7 containing serines instead of the two cysteines
T6 peptide: RSSVRESSGFTESRG

[8] = molecular target: T7, Peptide 3 LYNNPVTAVFNYQGL (human); assay: SPOT peptide scan, peroxidase-conjugated antibody, luminescence; no exchange
T7 construct: linear 15mer of the SPOT peptide scan; has no cysteine, so the Cys-Ser exchange row is the same peptide
T7 peptide: LYNNPVTAVFNYQGL

[9] = molecular target: T8, Peptide 5 VFNYQGLWRSCVRES (human); assay: as above
T8 construct: linear 15mer of the SPOT peptide scan, no exchange
T8 peptide: VFNYQGLWRSCVRES

[10] = molecular target: T9, Peptide 6, Cys-Ser exchange (human); assay: SPOT peptide scan, peroxidase-conjugated antibody, luminescence; Cys-Ser exchange
T9 peptide: QGLWRSSVRESSGFT

[11] = molecular target: T10, Peptide 5, Cys-Ser exchange (human); assay: as above
T10 peptide: VFNYQGLWRSSVRES

[12] = molecular target: T2, murine CLD18A1; assay: flow cytometry on transfected HEK293 cells
Procedure: Binding of the identified monoclonal antibodies to murine CLD18A2 and CLD18A1 was analyzed by flow cytometry. […] Binding was assessed by flow cytometry using a BD FACSArray.

[13] = molecular target: T2, murine CLD18A1; assay: summary table of murine antibodies
[14] = molecular target: T1, human CLD18A1; assay: summary table of murine antibodies

B1: ch-43A11 (antibody, V domains shown)
VH: QVQLQQSGAELMKPGASVKISCKATGYTFSSYWIEWVKQRPGHGLEWIGEILPGSGSTNYNEKFKGKATFTADTSSNTAYMQLSSLTSEDSAVYYCARYDYPWFAYWGQGTLVTVSA
VL: QIVLTQSPAIMSASPGEKVTITCSASSSVSYMHWFQQKPGTSPKLWIYSTSNLASGVPARFSGSGSGTSYSLTISRMEAEDAATYYCQQRSSYPPTFGGGTKLEIKR
notes: mouse/human chimeric, human gamma-1 and kappa constant regions; also called chimeric 43A11
- binding result [1]: no binding

B2: 43A11 (antibody, IgG2a, V domains shown)
VH: B1 VH
VL: QIVLTQSPAIMSASPGEKVTITCSASSSVSYMHWFQQKPGTSPKLWIYSTSNLASGVPARFSGSGSGTSYSLTISRMEAEDAATYYCQQRSSYPPTFGGGTKLEIK
notes: mouse monoclonal IgG2a, kappa; also called 182-D1106-062; DSM ACC2742
- binding result [1]: no binding

B3: ch-166E2 (antibody, V domains shown)
VH: QVQLQQSGPELVKPGASVKMSCKASGYTFTDYVISWVKQRTGQGLEWIGEIYPGSGSTYYNEKFKGKATLTADKSSNTAYMQLSSLTSEDSAVYFCARGVLLRAMDYWGQGTSVTVSS
VL: DIVMSQSPSSLAVSAGEKVTMSCKSSQSLLNSRTRKNYLAWYQQKPGQSPKLLIYWASTRESGVPDRFTGSGSGTDFTLTISSVQAEDLAVYYCKQSYNLYTFGGGTKLEIKR
notes: mouse/human chimeric, human gamma-1 and kappa constant regions; also called chimeric 166E2
- binding result [1]: no binding

B4: 166E2 (antibody, IgG3, V domains shown)
VH: B3 VH
VL: DIVMSQSPSSLAVSAGEKVTMSCKSSQSLLNSRTRKNYLAWYQQKPGQSPKLLIYWASTRESGVPDRFTGSGSGTDFTLTISSVQAEDLAVYYCKQSYNLYTFGGGTKLEIK
notes: mouse monoclonal IgG3, kappa; also called 182-D1106-308
- binding result [2]: no binding
- binding result [3]: no binding

B5: ch-175D10 (antibody, V domains shown)
VH: QVQLQQPGAELVRPGASVKLSCKASGYTFTSYWINWVKQRPGQGLEWIGNIYPSDSYTNYNQKFKDKATLTVDKSSSTAYMQLSSPTSEDSAVYYCTRSWRGNSFDYWGQGTTLTVSS
VL: DIVMTQSPSSLTVTAGEKVTMSCKSSQSLLNSGNQKNYLTWYQQKPGQPPKLLIYWASTRESGVPDRFTGSGSGTDFTLTISSVQAEDLAVYYCQNDYSYPFTFGSGTKLEIKR
notes: mouse/human chimeric, human gamma-1 and kappa constant regions; peroxidase-conjugated in the peptide scan; also called chimeric 175D10
- binding result [4]: binds
- binding result [5]: binds
- binding result [6]: binds
- binding result [7]: binds

Now from value to binder:

- binding result [1]: no binding
- binding result [5]: binds
- binding result [6]: binds
- binding result [8]: binds
- binding result [9]: binds
- binding result [10]: binds
- binding result [11]: binds
B6: ch-163E12 (antibody, V domains shown)
VH: QIQLVQSGPELKKPGETVKISCKASGYTFTNYGMNWVKQAPGKGLKWMGWINTNTGEPTYAEEFKGRFAFSLETSASTAYLQINNLKNEDTATYFCARLGFGNAMDYWGQGTSVTVSS
VL: B5 VL with F102L, S106A, I112L
notes: mouse/human chimeric, human gamma-1 and kappa constant regions; peroxidase-conjugated in the peptide scan; also called chimeric 163E12

- binding result [1]: no binding
- binding result [12]: no binding
B7: 163E12 (antibody, IgG3, V domains shown)
VH: B6 VH
VL: DIVMTQSPSSLTVTAGEKVTMSCKSSQSLLNSGNQKNYLTWYQQKPGQPPKLLIYWASTRESGVPDRFTGSGSGTDFTLTISSVQAEDLAVYYCQNDYSYPLTFGAGTKLELK
notes: mouse monoclonal IgG3, kappa; also called 182-D1106-294; DSM ACC2809

- binding result [1]: no binding
B8: ch-125E1 (antibody, V domains shown)
VH: QVQLQQSGAELARPGASVKLSCKASGYTFTDYYINWVKQRTGQGLEWIGEIYPGSGNTYYNEKFKGKATLTADKSSSTAYMQLSSLTSEDSAVYFCARSYGAFDYWGQGTTLTVSS
VL: DIVMTQSQKFMSTSVGDRVSITCKASQNVRTAVAWYQQKPGQSPKALIYLASNRHTGVPDRFTGSGSGTDFTLTISNVQSEDLADYFCLQHWNYPLTFGGGTKLEIKR
notes: mouse/human chimeric, human gamma-1 and kappa constant regions; also called chimeric 125E1

- binding result [13]: no binding
- binding result [14]: no binding
B9: 125E1 (antibody, IgG2a, V domains shown)
VH: B8 VH
VL: DIVMTQSQKFMSTSVGDRVSITCKASQNVRTAVAWYQQKPGQSPKALIYLASNRHTGVPDRFTGSGSGTDFTLTISNVQSEDLADYFCLQHWNYPLTFGGGTKLEIK
notes: mouse monoclonal IgG2a, kappa; also called 182-D1106-279; DSM ACC2808
